Series [1] has as its target T1, thrombin (human) (UniProt P00734+P00734). Briefly: fibrinogen clotting (light scattering). Conditions: Clotting: 20 mM Tris, 150 mM NaCl, 5 mM KCl, 1 mM MgCl2, 1 mM CaCl2, pH 7.4, 12 nM thrombin, 25 C, 5 min; AFM binding conditions not given in the material.
The target in series [2] is T1, thrombin (human). The series is described as follows: AFM. The conditions noted are these: Clotting: 20 mM Tris, 150 mM NaCl, 5 mM KCl, 1 mM MgCl2, 1 mM CaCl2, pH 7.4, 12 nM thrombin, 25 C, 5 min; AFM binding conditions not given in the material.

In turn, “Aptarray (rectangular origami, 36 TBA15 + 36 HD22, 5.4 nm)” registered a binding signal (% inhibition of thrombin) in the series with thrombin (human) [1] of 98.3. With “origami nanostructure IV (9 TBA15 + 9 HD22, ~5.4 nm)”, the binding signal (% of origami with bound thrombin) in the series with thrombin (human) [2] amounted to 76.

Values taken from paper PMC7807036.
